B1: library; numbered along this chain (parent)
chain: MRKPRAAVGSGHRKQAASQEGRQKHAKNNSQAKPSACDGLARQPEEVVLQASVSSYHLFRDVAEVTAFRGSLLSWYDQEKRDLPWRRRAEDEMDLDRRAYAVWVSEVMLQQTQVATVINYYTGWMQKWPTLQDLASASLEEVNQLWAGLGYYSRGRRLQEGARKVVEELGGHMPRTAETLQQLLPGVGRYTAGAIASIAFGQATGVVDGNVARVLCRVRAIGADPSSTLVSQQLWGLAQQLVDPARPGDFNQAAMELGATVCTPQRPLCSQCPVESLCRARQRVEQEQLLASGSLSGSPDVEECAPNTGQCHLCLPPSEPWDQTLGVVNFPRKASRKPPREESSATCVLEQPGALGAQILLVQRPNSGLLAGLWEFPSVTWEPSEQLQRKALLQELQRWAGPLPATHLRHLGEVVHTFSHIKLTYQVYGLALEGQTPVTTVPPGARWLTQEEFHTAAVSTAMKKVFRVYQGQQPGTCMGSKRSQVSSPCSRKKPRMGQQVLDNFFRSHISTDAHSLNSAAQ

Variants of: B1
Experiment: 8OG:A repair function score (normalized; synonymous = 0, nonsense = -1) (normalized log-likelihood score); higher = more repair activity (WT-like)
Details: with 8OG:A DNA repair reporter (GFP) in HEK-293 MUTYH KO cells
Method in brief: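 Lentiviral MUTYH cDNA NNN codon-scan libraries in HEK-293 MUTYH knockout cells (10 pg/ml doxycycline) were co-transfected with an 8OG:A GFP repair reporter plus mCherry. At 72 h, viable mCherry+ cells were sorted into GFP+ (repair) and GFP− bins, three replicates per tile, then tile amplicons were sequenced. Per-tile Rosace fitness scores became a normalized repair function score anchored on synonymous and nonsense distributions. Synonymous medians were set to 0 and nonsense to -1; variants under 300 counts per million at the start were removed.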

8OG:A repair function score of substitutions, site by site:
A280: P -0.965 | T -0.13 | F -0.597
L277: D -0.199 | C -0.0293 | F 0.00162 | T -0.115 | M 0.00781 | R -0.152 | E -0.204 | A -0.125 | I -0.036 | Q -0.0714 | N -0.0739 | W -0.00135 | S -0.022 | V -0.0751 | Y 0.014 | H -0.0518 | K -0.17 | P -0.383
V284: A 0.00964 | W -0.0406 | G -0.236 | S -0.0426 | T 0.0102 | N -0.0944 | I -0.0683 | R -0.149 | C -0.0207 | H -0.12 | M -0.00894 | P -0.32 | E -0.033 | L -0.0493 | Q -0.0561 | K -0.0279 | F -0.00936 | D -0.0734 | Y -0.0139
R281: P -0.443 | Y -0.0264 | C -0.173 | Q -0.113 | E -0.484 | I -0.176 | L -0.166 | S -0.126 | N -0.0901 | H 0.00153 | W -0.105 | M -0.0676 | V -0.131 | T -0.16 | F -0.126 | K -0.09 | D -0.447 | G -0.264 | A -0.0465
Q288: H 0.00465 | I -0.0801 | S -0.0113 | C -0.0156 | W -0.0268 | M -0.03 | G -0.0129 | T 0.00195 | Y -0.0255 | K -0.0373 | V -0.068 | N 0.0202 | A 0.00699 | R -0.00978 | F -0.016 | D -0.0736 | L -0.0159 | P -0.036 | E -0.0177
E275: I -0.0114 | R 0.00881 | N -0.00161 | Q 0.0396 | A 0.0221 | C -0.0803 | K 0.00478 | T 0.0286 | V 0.0153 | W -0.0767 | G -0.00445 | H 0.015 | L -0.00764 | S 0.00561 | D -0.113 | Y -0.0195 | F 0.0124 | P -0.152 | M 0.00516
Q282: M -0.0222 | A -0.0281 | C -0.0445 | G -0.0596 | E -0.0248 | N -0.0575 | I -0.0327 | D -0.125 | R -0.0175 | F -0.021 | Y -0.0373 | K 0.0141 | V -0.0489 | T -0.0623 | P -0.526 | W -0.0465 | S -0.0408 | H -0.0165 | L -0.0273
C272: Y -0.982 | R -1.35 | N -1.21 | L -1.26 | Q -1.09 | I -1.3 | V -1.12 | K -1.41 | W -1.09 | S -1.17 | T -1.24 | M -1.19 | P -1.26
Q286: P -0.093 | K -0.000545 | G -0.0661 | H -0.0639 | S -0.023 | I -0.0426 | A -0.00891 | W -7.92e-05 | L -0.0175 | T -0.00617 | R 0.00446 | M -0.0133 | V -0.0346 | N 0.0116 | F -0.00865 | E -0.0273 | Y -0.0193 | D -0.0961 | C -0.00905
C278: Q -1.14 | T -1.15 | K -1.26 | L -1.1 | R -1.27 | F -1.07 | E -0.92 | N -1.1 | M -1.52 | V -1.16 | S -1.07 | Y -0.972 | G -1.17 | P -1.2 | W -1.05 | H -1.09 | A -1.11 | I -1.03 | D -1.08

— the supplement of paper PMC11908140
